Measurements from patent publication US10358467B2, “Therapeutic targets for cancer progression” (The Regents of the University of California, priority 2015, dated 2019).

Key:
Format in all cases: cell-based
[1] = test system: Gi heterotrimer (Gαi1-YFP, CFP-Gβ1, Gγ2); assay: FRET between Gαi1-YFP and CFP-Gβ1 (Gi activation) in living HeLa cells
Experimental: (§1) Förster Resonance Energy Transfer (FRET) experiments were performed using the classical ECFP- and EYFP-tagged proteins as donor and acceptor FRET-probe pairs, respectively. Previously validated and published FZD7-CFP construct was a generous gift from Carl-Philip Heisenberg (Witzel et al, 2006). Previously validated Gαi3-YFP and Gαi1-YFP (internally tagged Gαi subunits) and CFP-Gβ1 were generous gifts from Moritz Bunemann (Bunemann et al, 2003; Gibson & Gilman, 2006). Interaction of FZD7-CFP and Gαi3-YFP proteins was studied in HEK293T cells using a Leica inverted laser scanning confocal microscope. […] Loss of FRET upon Gi activation and heterotrimer dissociation was measured between Gαi1-YFP and CFP-Gβ1 proteins co-expressed in living HeLa cells using Olympus FV1000 inverted confocal laser scanning microscope equipped with a 60× 1.49 N.A oil immersed objective designed to minimize chromatic aberration and enhance resolution for 405-605 nm imaging as described previously (Midde et al, 2015). […] FRET efficiency was calculated on a pixel by pixel basis from ratiometric images obtained in individual channels (donor, acceptor and FRET) through a RiFRET plugin in Image J software (Roszik et al, 2009). […]

[2] = test system: cAMP levels in HeLa cells; assay: Measurement of cAMP by radioimmunoassay in HeLa cells
Experimental: HeLa cells were transfected with DAPLE-WT or DAPLE-FA, serum starved (0.2% FBS, 16 h) and incubated with isobutylmethylxanthine (IBMX, 200 μM, 20 min) followed by Wnt5a stimulation (100 ng/ml, 20 min) and Forskolin (10 uM, 10 min). To stop the reaction, cell medium was replaced with 150 μl of ice-cold TCA 7.5% (w/v). cAMP content in TCA extracts was determined by radioimmunoassay (MA) and normalized. To the amount of protein [(determined using a dyebinding protein assay (Bio-Rad)] per sample as previously described (Ostrom et al, 2001).

FZD7R-Gαi3 complexes = assay: FRET between FZD7R-CFP and Gαi3-YFP in HEK293 cells; conditions: plasma membrane, within 5 min; starved cells 0.04±0.01
Experimental: as §1

B1: Wnt5a: recombinant Wnt5a purified from CHO conditioned media (protein, UniProt P41221 62-380, looked up)
Protein Wnt-5a: IIGAQPLCSQLAGLSQGQKKLCHLYQDHMQYIGEGAKTGIKECQYQFRHRRWNCSTVDNTSVFGRVMQIGSRETAFTYAVSAAGVVNAMSRACREGELSTCGCSRAARPKDLPRDWLWGGCGDNIDYGYRFAKEFVDARERERIHAKGSYESARILMNLHNNEAGRRTVYNLADVACKCHGVSGSCSLKTCWLQLADFRKVGDALKEKYDSAAAMRLNSRGKLVQVNSRFNSPTTQDLVYIDPSPDYCVRNESTGSLGTQGRLCNKTSEGMDGCELMCCGRGYDQFKTVQTERCHCKFHWCCYVKCKKCTEIVDQFVCK
drop in FRET after Wnt5a stimulation ([1]; DAPLE-depleted HeLa cells): No significant drop in FRET | FRET efficiency after Wnt5a stimulation ([1]; control HeLa cells, plasma membrane, within 5 min, 0.36±0.08 before stimulation): 0.17±0.06 | suppression of cAMP levels ([2]; HeLa cells expressing DAPLE-FA): no such suppression | suppression of cAMP levels ([2]; HeLa cells expressing DAPLE-WT, Wnt5a 100 ng/ml 20 min): ~50% | FRET efficiency after ligand stimulation (FZD7R-Gαi3 complexes): 0.25±0.06
